Laboratory results: patent publication US20180155451A1 (published 2018)

T1: FcγRIIa H (human, UniProt P12318 34-217)
T1 construct: extracellular domain; also called FcgRIIa H type; 2aH; not shown: His tag at the C terminus
T1 sequence (looked up): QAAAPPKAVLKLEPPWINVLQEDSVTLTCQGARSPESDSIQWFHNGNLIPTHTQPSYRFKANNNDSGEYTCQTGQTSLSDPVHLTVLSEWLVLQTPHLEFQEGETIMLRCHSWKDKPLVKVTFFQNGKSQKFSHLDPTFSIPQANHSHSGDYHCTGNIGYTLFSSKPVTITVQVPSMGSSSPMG

B1: GpH7-B3 variant I332_02A/GpL16-k0 (antibody, human IgG1, kappa)
heavy: not shown
light: DIVMTQSPLSLPVTPGEPASISCQASESLVHSNRNTYLHWYLQKPGQSPQLLIYKVSNRFSGVPDRFSGSGSGTDFTLKISRVEAEDVGVYYCSQNTHVPPTFGQGTKVEIERTVAAPSVFIFPPSDEQLKSGTASVVCLLNNFYPREAKVQWKVDNALQSGNSQESVTEQDSKDSTYSLSSTLTLSKADYEKHKVYACEVTHQGLSSPVTKSFNRGEC
notes: also called Ho Ab I332_02A
B2: GpH7-B3 variant S324_02A/GpL16-k0 (antibody, human IgG1, kappa)
heavy: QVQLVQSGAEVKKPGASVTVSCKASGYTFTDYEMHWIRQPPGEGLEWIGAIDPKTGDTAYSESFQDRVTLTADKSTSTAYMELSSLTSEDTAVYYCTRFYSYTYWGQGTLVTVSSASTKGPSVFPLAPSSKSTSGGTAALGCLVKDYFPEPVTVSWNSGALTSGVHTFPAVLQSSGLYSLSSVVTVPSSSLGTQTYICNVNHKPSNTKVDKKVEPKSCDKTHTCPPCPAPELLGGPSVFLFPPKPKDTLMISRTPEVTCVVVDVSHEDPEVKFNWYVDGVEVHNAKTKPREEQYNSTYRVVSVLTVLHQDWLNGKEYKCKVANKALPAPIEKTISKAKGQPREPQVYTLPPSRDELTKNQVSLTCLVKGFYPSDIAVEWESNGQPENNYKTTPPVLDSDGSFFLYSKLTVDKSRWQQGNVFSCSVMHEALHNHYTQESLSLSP
light: B1 light
notes: also called Ho Ab S324_02A
B3: GpH7-B3 variant K334_08L/GpL16-k0 (antibody, human IgG1, kappa)
heavy: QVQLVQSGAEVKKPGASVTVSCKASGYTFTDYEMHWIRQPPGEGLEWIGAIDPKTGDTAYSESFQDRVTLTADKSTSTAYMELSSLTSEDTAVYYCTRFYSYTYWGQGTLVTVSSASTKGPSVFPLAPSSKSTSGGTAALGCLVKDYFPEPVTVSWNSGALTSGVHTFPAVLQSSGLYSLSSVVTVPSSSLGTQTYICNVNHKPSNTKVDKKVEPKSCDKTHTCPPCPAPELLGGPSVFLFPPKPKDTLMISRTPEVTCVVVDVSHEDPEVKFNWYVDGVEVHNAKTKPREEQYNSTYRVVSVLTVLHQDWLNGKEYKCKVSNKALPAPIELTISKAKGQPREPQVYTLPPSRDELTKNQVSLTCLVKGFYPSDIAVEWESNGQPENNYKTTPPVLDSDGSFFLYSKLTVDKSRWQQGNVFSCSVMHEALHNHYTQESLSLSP
light: B1 light
notes: also called Ho Ab K334_08L
B4: GpH7-B3 variant I332_19Q/GpL16-k0 (antibody, human IgG1, kappa)
heavy: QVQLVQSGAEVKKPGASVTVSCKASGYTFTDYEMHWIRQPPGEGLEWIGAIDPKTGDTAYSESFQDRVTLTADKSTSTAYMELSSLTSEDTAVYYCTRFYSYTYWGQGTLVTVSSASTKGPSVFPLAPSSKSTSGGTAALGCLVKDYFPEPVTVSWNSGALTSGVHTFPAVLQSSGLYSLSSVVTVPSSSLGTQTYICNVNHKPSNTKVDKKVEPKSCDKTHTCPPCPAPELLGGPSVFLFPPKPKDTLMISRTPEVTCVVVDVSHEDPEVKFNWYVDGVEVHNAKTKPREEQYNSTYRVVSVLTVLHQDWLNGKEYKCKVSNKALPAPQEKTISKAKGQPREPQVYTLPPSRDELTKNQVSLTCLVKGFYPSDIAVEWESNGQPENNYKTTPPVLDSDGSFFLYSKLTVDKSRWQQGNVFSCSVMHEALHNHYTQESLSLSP
light: B1 light
notes: also called Ho Ab I332_19Q
B5: GpH7-B3 variant I332_15Y/GpL16-k0 (antibody, human IgG1, kappa)
heavy: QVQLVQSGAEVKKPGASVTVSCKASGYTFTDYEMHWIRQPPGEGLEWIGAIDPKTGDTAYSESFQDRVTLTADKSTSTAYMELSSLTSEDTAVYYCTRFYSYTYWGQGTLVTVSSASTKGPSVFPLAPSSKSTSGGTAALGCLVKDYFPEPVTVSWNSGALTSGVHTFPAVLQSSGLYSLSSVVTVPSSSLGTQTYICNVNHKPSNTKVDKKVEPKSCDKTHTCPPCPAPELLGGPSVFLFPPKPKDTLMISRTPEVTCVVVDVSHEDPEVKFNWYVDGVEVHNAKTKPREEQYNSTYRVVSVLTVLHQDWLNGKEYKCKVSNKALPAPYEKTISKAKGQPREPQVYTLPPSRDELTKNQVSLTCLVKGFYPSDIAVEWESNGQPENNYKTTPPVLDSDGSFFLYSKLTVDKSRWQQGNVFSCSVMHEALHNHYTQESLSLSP
light: B1 light
notes: also called Ho Ab I332_15Y
B6: GpH7-B3 variant S324_20W/GpL16-k0 (antibody, human IgG1, kappa)
heavy: not shown
light: B1 light
notes: also called Ho Ab S324_20W
B7: GpH7-B3 variant T335_16H/GpL16-k0 (antibody, human IgG1, kappa)
heavy: not shown
light: B1 light
notes: also called Ho Ab T335_16H
B8: GpH7-B3 variant S337_09D/GpL16-k0 (antibody, human IgG1, kappa)
heavy: not shown
light: B1 light
notes: also called Ho Ab S337_09D
B9: GpH7-B3 variant I332_13S/GpL16-k0 (antibody, human IgG1, kappa)
heavy: not shown
light: B1 light
notes: also called Ho Ab I332_13S
B10: GpH7-B3 variant H268_10E/GpL16-k0 (antibody, human IgG1, kappa)
heavy: not shown
light: B1 light
notes: also called Ho Ab H268_10E
B11: GpH7-B3 variant S267_02A/GpL16-k0 (antibody, human IgG1, kappa)
heavy: not shown
light: B1 light
notes: also called Ho Ab S267_02A
B12: GpH7-B3 variant K326_10E/GpL16-k0 (antibody, human IgG1, kappa)
heavy: not shown
light: B1 light
notes: also called Ho Ab K326_10E
B13: GpH7-B3 variant K326_14T/GpL16-k0 (antibody, human IgG1, kappa)
heavy: not shown
light: B1 light
notes: also called Ho Ab K326_14T
B14: GpH7-B3 variant T335_01G/GpL16-k0 (antibody, human IgG1, kappa)
heavy: not shown
light: B1 light
notes: also called Ho Ab T335_01G
B15: GpH7-B3 variant L328_14T/GpL16-k0 (antibody, human IgG1, kappa)
heavy: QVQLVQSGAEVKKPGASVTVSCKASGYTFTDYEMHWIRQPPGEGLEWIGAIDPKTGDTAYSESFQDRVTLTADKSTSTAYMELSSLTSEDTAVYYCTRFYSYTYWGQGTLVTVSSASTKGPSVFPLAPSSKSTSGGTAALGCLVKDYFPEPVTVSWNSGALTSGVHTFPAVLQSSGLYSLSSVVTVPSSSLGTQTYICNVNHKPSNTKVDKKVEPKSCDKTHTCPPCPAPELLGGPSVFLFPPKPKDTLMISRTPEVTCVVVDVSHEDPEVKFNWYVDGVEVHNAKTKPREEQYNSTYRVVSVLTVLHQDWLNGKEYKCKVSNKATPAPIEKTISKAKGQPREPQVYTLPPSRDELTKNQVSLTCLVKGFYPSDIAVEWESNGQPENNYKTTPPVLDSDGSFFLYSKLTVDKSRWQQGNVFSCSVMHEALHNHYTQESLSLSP
light: B1 light
notes: also called Ho Ab L328_14T
B16: GpH7-B3 variant I332_04F/GpL16-k0 (antibody, human IgG1, kappa)
heavy: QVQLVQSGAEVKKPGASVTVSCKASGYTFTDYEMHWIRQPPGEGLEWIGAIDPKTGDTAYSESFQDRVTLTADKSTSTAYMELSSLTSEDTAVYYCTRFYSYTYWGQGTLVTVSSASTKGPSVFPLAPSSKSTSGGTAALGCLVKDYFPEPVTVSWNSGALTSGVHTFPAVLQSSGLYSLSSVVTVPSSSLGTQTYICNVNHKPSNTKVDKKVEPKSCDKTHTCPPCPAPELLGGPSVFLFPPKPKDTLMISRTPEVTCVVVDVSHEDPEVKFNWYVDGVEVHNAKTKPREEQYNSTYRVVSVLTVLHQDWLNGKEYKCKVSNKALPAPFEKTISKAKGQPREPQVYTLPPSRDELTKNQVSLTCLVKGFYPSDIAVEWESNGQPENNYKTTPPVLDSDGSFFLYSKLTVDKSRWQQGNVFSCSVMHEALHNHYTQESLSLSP
light: B1 light
notes: also called Ho Ab I332_04F
B17: GpH7-B3 variant T335_13S/GpL16-k0 (antibody, human IgG1, kappa)
heavy: not shown
light: B1 light
notes: also called Ho Ab T335_13S
B18: GpH7-B3 variant K334_14T/GpL16-k0 (antibody, human IgG1, kappa)
heavy: not shown
light: B1 light
notes: also called Ho Ab K334_14T
B19: GpH7-B3 variant G236_07I/GpL16-k0 (antibody, human IgG1, kappa)
heavy: not shown
light: B1 light
notes: also called Ho Ab G236_07I
B20: GpH7-B3 variant T335_07I/GpL16-k0 (antibody, human IgG1, kappa)
heavy: not shown
light: B1 light
notes: also called Ho Ab T335_07I
B21: GpH7-B3 variant K326_06M/GpL16-k0 (antibody, human IgG1, kappa)
heavy: not shown
light: B1 light
notes: also called Ho Ab K326_06M
B22: GpH7-B3 variant K326_09D/GpL16-k0 (antibody, human IgG1, kappa)
heavy: not shown
light: B1 light
notes: also called Ho Ab K326_09D
B23: GpH7-B3 variant H268_09D/GpL16-k0 (antibody, human IgG1, kappa)
heavy: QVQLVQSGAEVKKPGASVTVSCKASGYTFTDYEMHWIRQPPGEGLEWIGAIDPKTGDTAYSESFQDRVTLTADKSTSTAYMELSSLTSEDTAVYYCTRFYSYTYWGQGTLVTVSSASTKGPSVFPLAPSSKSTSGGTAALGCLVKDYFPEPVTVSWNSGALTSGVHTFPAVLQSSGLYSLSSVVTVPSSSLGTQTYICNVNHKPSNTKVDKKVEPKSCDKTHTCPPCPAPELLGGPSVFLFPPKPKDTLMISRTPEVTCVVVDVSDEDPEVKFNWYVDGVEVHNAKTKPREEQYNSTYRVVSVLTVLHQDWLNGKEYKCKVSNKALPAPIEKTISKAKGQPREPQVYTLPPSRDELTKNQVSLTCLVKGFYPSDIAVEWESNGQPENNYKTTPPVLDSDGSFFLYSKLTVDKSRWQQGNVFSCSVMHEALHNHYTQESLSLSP
light: B1 light
notes: also called Ho Ab H268_09D
B24: GpH7-B3 variant K334_15Y/GpL16-k0 (antibody, human IgG1, kappa)
heavy: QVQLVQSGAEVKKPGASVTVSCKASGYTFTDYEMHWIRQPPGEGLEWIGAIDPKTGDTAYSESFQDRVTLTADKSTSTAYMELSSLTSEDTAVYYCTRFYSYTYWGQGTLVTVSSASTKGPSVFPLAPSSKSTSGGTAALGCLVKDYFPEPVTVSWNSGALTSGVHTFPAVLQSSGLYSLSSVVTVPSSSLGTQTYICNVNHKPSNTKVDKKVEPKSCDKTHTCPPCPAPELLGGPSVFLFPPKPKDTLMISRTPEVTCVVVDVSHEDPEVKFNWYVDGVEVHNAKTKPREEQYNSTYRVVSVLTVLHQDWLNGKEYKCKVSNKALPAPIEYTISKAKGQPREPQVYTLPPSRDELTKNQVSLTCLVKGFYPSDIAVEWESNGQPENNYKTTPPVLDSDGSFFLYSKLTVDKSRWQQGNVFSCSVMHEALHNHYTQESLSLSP
light: B1 light
notes: also called Ho Ab K334_15Y
B25: GpH7-B3 variant L328_06M/GpL16-k0 (antibody, human IgG1, kappa)
heavy: not shown
light: B1 light
notes: also called Ho Ab L328_06M
B26: GpH7-B3 variant Q295_05P/GpL16-k0 (antibody, human IgG1, kappa)
heavy: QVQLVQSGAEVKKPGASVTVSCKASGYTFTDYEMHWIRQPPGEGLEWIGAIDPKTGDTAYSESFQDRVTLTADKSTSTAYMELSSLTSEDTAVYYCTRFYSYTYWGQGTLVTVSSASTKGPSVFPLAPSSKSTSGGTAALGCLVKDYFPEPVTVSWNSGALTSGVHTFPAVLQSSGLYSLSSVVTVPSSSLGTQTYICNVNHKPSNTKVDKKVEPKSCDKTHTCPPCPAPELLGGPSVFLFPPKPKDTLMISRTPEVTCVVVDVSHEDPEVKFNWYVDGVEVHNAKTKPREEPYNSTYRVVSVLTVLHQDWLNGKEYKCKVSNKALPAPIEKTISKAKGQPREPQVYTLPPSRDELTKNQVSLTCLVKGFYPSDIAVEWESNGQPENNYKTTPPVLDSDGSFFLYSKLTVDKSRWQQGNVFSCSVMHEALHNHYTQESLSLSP
light: B1 light
notes: also called Ho Ab Q295_05P
B27: GpH7-B3 variant H268_13S/GpL16-k0 (antibody, human IgG1, kappa)
heavy: not shown
light: B1 light
notes: also called Ho Ab H268_13S
B28: GpH7-B3 variant I332_16H/GpL16-k0 (antibody, human IgG1, kappa)
heavy: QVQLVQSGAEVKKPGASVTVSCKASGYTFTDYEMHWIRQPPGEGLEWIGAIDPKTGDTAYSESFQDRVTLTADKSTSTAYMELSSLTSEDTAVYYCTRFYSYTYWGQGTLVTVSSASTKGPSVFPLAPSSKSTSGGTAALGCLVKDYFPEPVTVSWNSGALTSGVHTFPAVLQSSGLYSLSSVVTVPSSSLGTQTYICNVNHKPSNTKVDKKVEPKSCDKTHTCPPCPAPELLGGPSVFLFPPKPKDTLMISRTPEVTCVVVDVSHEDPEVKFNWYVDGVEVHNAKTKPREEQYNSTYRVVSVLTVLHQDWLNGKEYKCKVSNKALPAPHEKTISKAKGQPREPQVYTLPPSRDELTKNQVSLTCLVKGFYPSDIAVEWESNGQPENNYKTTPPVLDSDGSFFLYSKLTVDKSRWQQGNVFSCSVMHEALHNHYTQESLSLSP
light: B1 light
notes: also called Ho Ab I332_16H
B29: GpH7-B3 variant H268_18N/GpL16-k0 (antibody, human IgG1, kappa)
heavy: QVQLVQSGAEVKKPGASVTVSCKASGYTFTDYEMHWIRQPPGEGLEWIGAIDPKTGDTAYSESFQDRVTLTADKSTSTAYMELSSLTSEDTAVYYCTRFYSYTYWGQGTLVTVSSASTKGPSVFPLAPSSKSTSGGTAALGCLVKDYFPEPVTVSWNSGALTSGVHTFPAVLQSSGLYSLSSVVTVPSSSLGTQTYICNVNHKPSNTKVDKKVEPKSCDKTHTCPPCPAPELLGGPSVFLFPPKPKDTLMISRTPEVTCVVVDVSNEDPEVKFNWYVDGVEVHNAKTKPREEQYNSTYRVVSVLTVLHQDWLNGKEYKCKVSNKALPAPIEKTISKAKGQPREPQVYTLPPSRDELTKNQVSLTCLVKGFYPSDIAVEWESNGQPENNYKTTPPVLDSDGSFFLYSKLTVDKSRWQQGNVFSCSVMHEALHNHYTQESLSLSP
light: B1 light
notes: also called Ho Ab H268_18N

The binders below were run against T1, FcγRIIa H (assay: SPR Biacore, relative binding).

Row | Ho/Con_2aH | Binder
1 | 119 % of GpH7-B3/GpL16-k0 (=100) | B1
2 | 102 % of GpH7-B3/GpL16-k0 (=100) | B2
3 | 103 % of GpH7-B3/GpL16-k0 (=100) | B3
4 | 114 % of GpH7-B3/GpL16-k0 (=100) | B4
5 | 126 % of GpH7-B3/GpL16-k0 (=100) | B5
6 | 108 % of GpH7-B3/GpL16-k0 (=100) | B6
7 | 100 % of GpH7-B3/GpL16-k0 (=100) | B7
8 | 107 % of GpH7-B3/GpL16-k0 (=100) | B8
9 | 121 % of GpH7-B3/GpL16-k0 (=100) | B9
10 | 126 % of GpH7-B3/GpL16-k0 (=100) | B10
11 | 120 % of GpH7-B3/GpL16-k0 (=100) | B11
12 | 101 % of GpH7-B3/GpL16-k0 (=100) | B12
13 | 118 % of GpH7-B3/GpL16-k0 (=100) | B13
14 | 101 % of GpH7-B3/GpL16-k0 (=100) | B14
15 | 110 % of GpH7-B3/GpL16-k0 (=100) | B15
16 | 111 % of GpH7-B3/GpL16-k0 (=100) | B16
17 | 101 % of GpH7-B3/GpL16-k0 (=100) | B17
18 | 105 % of GpH7-B3/GpL16-k0 (=100) | B18
19 | 101 % of GpH7-B3/GpL16-k0 (=100) | B19
20 | 105 % of GpH7-B3/GpL16-k0 (=100) | B20
21 | 101 % of GpH7-B3/GpL16-k0 (=100) | B21
22 | 113 % of GpH7-B3/GpL16-k0 (=100) | B22
23 | 136 % of GpH7-B3/GpL16-k0 (=100) | B23
24 | 110 % of GpH7-B3/GpL16-k0 (=100) | B24
25 | 100 % of GpH7-B3/GpL16-k0 (=100) | B25
26 | 106 % of GpH7-B3/GpL16-k0 (=100) | B26
27 | 114 % of GpH7-B3/GpL16-k0 (=100) | B27
28 | 119 % of GpH7-B3/GpL16-k0 (=100) | B28
29 | 110 % of GpH7-B3/GpL16-k0 (=100) | B29
